The target of experiment [1] is HIV-1 Env of virus strain 6471.V1.C16 (HIV-1). The experiment in a line: cell-based or functional assay.
The target in experiment [2] is BG505 SOSIP.664 Env trimer (HIV-1). In words: negative stain EM of the complex, 6:1 molar ratio.

Drawing on patent publication US20200123236A1, this text covers IC50, neutralization of Env-pseudovirus on TZM-bl cells and Bi-ScFvs bound per Env trimer (Bi-ScFv per Env trimer) for 2 molecules.

B1: 10E8 IgG (antibody, V domains shown)
VH: EVQLVESGGGLVKPGGSLRLSCSASGFDFDNAWMTWVRQPPGKGLEWVGRITGPGEGWSVDYAAPVEGRFTISRLNSINFLYLEMNNLRMEDSGLYFCARTGKYYDFWSGYPPGEEYFQDWGRGTLVTVSS
VL: SYELTQETGVSVALGRTVTITCRGDSLRSHYASWYQKKPGQAPILLFYGKNNRPSGVPDRFSGSASGNRASLTISGAQAEDDAEYYCSSRDKSGSRLSVFGGGTKLTVL
In experiment [1], B1 came in with an IC50, neutralization of Env-pseudovirus on TZM-bl cells of 4.98 µg/mL.

B2: Bi-ScFv dVRC01-5X-PGT121 (bispecific antibody)
scFv: SLTQSPGTLSLSPGETAIISCRTSQYGSLAWYQQRPGQAPRLVIYSGSTRAAGIPDRFSGSRWGPDYNLTISNLESGDFGVYYCQQYEFFGQGTKVQVDIKGGGGSGGGGSGGGGSQVQLVQSGGQMKKPGESMRISCRASGYEFIDCTLNWIRLAPGKRPEWMGWLKPRGGAVNYARPLQGRVTMTRDVYSDTAFLELRSLTVDDTAVYFCTRGKNCDYNWDFEHWGRGTPVIVSSGGGGSGGGGSGGGGSGGGGSGGGGSSDISVAPGETARISCGEKSLGSRAVQWYQHRAGQAPSLIIYNNQDRPSGIPERFSGSPDSPFGTTATLTITSVEAGDEADYYCHIWDSRVPTKWVFGGGTTLTVLGGGGSGGGGSGGGGSQMQLQESGPGLVKPSETLSLTCSVSGASISDSYWSWIRRSPGKGLEWIGYVHKSGDTNYSPSLKSRVNLSLDTSKNQVSLSLVAATAADSGKYYCARTLHGRRIYGIVAFNEWFTYFYMDVWGNGTQVTVSSGSGHHHHHH
As for B2, the Bi-ScFvs bound per Env trimer (Bi-ScFv per Env trimer) in experiment [2] amounted to 3.
